Measurements as given in IntAct's records for PubMed 16002700.

B1: Natural killer cell receptor 2B4 (Homo sapiens), Q9BZW8 (parent)
chain: MLGQVVTLILLLLLKVYQGKGCQGSADHVVSISGVPLQLQPNSIQTKVDSIAWKKLLPSQNGFHHILKWENGSLPSNTSNDRFSFIVKNLSLLIKAAQQQDSGLYCLEVTSISGKVQTATFQVFVFESLLPDKVEKPRLQGQGKILDRGRCQVALSCLVSRDGNVSYAWYRGSKLIQTAGNLTYLDEEVDINGTHTYTCNVSNPVSWESHTLNLTQDCQNAHQEFRFWPFLVIIVILSALFLGTLACFCVWRRKRKEKQSETSPKEFLTIYEDVKDLKTRRNHEQEQTFPGGGSTIYSMIQSQSSAPTSQEPAYTLYSLIQPSRKSGSRKRNHSPSFNSTIYEVIGKSQPKAQNPARLSRKELENFDVYS

Variants of: B1
Details: with cd48_human CD48, P09326
Sequence of cd48_human CD48, P09326 (P09326 whole entry): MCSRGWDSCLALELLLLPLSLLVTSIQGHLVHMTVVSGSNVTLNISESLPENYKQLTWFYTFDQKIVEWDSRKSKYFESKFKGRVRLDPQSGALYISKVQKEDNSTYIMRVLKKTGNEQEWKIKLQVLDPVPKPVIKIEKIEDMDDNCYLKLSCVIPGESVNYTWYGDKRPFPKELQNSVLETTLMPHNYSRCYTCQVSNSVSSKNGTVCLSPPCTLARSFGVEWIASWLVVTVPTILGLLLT
With MLGQVVTLILLLLLKVYQGKGCQGSADHVVSISGVPLQLQPNSIQTKVDSIAWKKLLPSQNGFHHILAWANGSLPSNTSNDRFSFIVKNLSLLIKAAQQQDSGLYCLEVTSISGKVQTATFQVFVFESLLPDKVEKPRLQGQGKILDRGRCQVALSCLVSRDGNVSYAWYRGSKLIQTAGNLTYLDEEVDINGTHTYTCNVSNPVSWESHTLNLTQDCQNAHQEFRFWPFLVIIVILSALFLGTLACFCVWRRKRKEKQSETSPKEFLTIYEDVKDLKTRRNHEQEQTFPGGGSTIYSMIQSQSSAPTSQEPAYTLYSLIQPSRKSGSRKRNHSPSFNSTIYEVIGKSQPKAQNPARLSRKELENFDVYS [K68A;E70A] the “effect of a mutation on the interaction” value was “disrupting interaction”.
MLGQVVTLILLLLLKVYQGKGCQGSADHVVSISGVPLQLQPNSIQTKVDSIAWKKLLPSQNGFHHILKWANGSLPSNTSNDRFSFIVKNLSLLIKAAQQQDSGLYCLEVTSISGKVQTATFQVFVFESLLPDKVEKPRLQGQGKILDRGRCQVALSCLVSRDGNVSYAWYRGSKLIQTAGNLTYLDEEVDINGTHTYTCNVSNPVSWESHTLNLTQDCQNAHQEFRFWPFLVIIVILSALFLGTLACFCVWRRKRKEKQSETSPKEFLTIYEDVKDLKTRRNHEQEQTFPGGGSTIYSMIQSQSSAPTSQEPAYTLYSLIQPSRKSGSRKRNHSPSFNSTIYEVIGKSQPKAQNPARLSRKELENFDVYS [E70A] was tested, and the “effect of a mutation on the interaction” value was “decreasing interaction”.
MLGQVVTLILLLLLKVYQGKGCQGSADHVVSISGVPLQLQPNSIQTKVDSIAWKKLLPSQNGFHHILAWENGSLPSNTSNDRFSFIVKNLSLLIKAAQQQDSGLYCLEVTSISGKVQTATFQVFVFESLLPDKVEKPRLQGQGKILDRGRCQVALSCLVSRDGNVSYAWYRGSKLIQTAGNLTYLDEEVDINGTHTYTCNVSNPVSWESHTLNLTQDCQNAHQEFRFWPFLVIIVILSALFLGTLACFCVWRRKRKEKQSETSPKEFLTIYEDVKDLKTRRNHEQEQTFPGGGSTIYSMIQSQSSAPTSQEPAYTLYSLIQPSRKSGSRKRNHSPSFNSTIYEVIGKSQPKAQNPARLSRKELENFDVYS [K68A] was tested, and the “effect of a mutation on the interaction” value was “decreasing interaction”.
